Data taken from patent US20260209321A1 (SINGAPORE HEALTH SERVICES PTE, published 2026).

Assays:
Peptide-biotin [1] = target: T1, Peptide-biotin; assay: SPR Biacore 8K affinity ranking; antibody Fc-captured, Peptide-biotin analyte, 1:1 fit
T1 construct: also called antigen
Procedure: For affinity ranking, antibodies were captured on the sensor chip through Fc capture method. Peptide-biotin was used as the analyte. The surface was regenerated before the injection of another antibody. The process was repeated until all antibodies are analyzed. The off-rates of antibodies were obtained from fitting the experimental data locally to 1:1 interaction model using the Biacore 8K evaluation software. The antibodies were ranked by their dissociation rate constants (off-rates, kd). Based on the ranking result, the top 3 clones were selected.
Humanized antibodies were generated by replacing the framework regions (FRs) from mouse M4M antibody with counterparts from human, while maintaining the antibody's complementarity-determining regions (CDRs) binding regions. The antibody binding affinity of the chimeric and humanized antibodies was assessed by surface plasmon resonance (SPR) as shown in Table 1. Antibody clone A1 is the chimeric antibody and antibody clones A2-7 are humanized antibodies. Based on the results obtained from SPR, humanized clone A2 has the strongest SPR signal. For affinity ranking, antibodies were captured on the sensor chip through Fc capture method. Peptide-biotin was used as the analyte. The surface was regenerated before the injection of another antibody. The process was repeated until all antibodies are analyzed. The off-rates of antibodies were obtained from fitting the experimental data locally to 1:1 interaction model using the Biacore 8K evaluation software. The antibodies were ranked by their dissociation rate constants (off-rates, kd). Based on the ranking result, the top humanized clones were selected. […] Bolded and underlined amino acids correspond to the back mutation sites in the framework regions.

[2] = target: T2, human TRPM4 expressed in transfected HEK 293 cells (human, UniProt Q8TD43 1-1214); assay: immunofluorescent staining of HEK 293 cells transfected with human TRPM4; colocalization with WGA (surface TRPM4)
T2 construct: whole, on cells; also called transient receptor potential melastatin 4
T2 sequence (Q8TD43 whole entry): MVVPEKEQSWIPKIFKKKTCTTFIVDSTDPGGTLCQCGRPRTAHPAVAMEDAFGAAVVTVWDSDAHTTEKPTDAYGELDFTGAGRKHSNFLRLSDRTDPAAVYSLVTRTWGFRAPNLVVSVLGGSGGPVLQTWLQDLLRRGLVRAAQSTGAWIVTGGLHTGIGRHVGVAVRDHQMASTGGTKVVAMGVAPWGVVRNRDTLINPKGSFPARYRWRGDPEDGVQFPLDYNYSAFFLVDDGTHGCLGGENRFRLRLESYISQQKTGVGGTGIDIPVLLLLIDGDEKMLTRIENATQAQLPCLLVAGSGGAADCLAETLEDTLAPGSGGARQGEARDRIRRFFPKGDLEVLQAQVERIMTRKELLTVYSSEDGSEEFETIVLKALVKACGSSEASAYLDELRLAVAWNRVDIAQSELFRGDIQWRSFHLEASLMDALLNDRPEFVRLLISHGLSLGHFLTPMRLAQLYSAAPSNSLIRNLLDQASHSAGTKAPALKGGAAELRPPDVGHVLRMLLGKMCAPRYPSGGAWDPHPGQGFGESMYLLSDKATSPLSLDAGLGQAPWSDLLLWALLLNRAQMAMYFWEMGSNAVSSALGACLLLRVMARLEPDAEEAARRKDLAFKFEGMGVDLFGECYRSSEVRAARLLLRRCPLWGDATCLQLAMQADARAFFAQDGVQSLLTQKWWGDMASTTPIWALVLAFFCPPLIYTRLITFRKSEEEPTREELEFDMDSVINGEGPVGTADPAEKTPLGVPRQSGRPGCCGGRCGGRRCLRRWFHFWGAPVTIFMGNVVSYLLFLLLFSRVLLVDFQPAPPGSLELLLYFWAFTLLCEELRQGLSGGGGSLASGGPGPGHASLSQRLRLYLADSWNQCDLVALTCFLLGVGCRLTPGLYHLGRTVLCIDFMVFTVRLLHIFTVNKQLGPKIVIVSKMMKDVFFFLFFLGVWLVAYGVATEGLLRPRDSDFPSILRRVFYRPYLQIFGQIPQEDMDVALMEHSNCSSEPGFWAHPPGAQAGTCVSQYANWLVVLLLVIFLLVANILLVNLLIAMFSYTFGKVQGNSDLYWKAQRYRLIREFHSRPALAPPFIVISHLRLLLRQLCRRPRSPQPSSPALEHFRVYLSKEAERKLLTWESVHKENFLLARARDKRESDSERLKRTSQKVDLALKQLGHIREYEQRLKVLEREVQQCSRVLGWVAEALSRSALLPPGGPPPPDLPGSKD

Peptide-biotin [3] = target: T1, Peptide-biotin; assay: SPR Biacore 8K, purified IgG Fc-captured, Peptide-biotin analyte, 1:1 fit
Procedure: The affinity of purified antibody binding to Peptide-biotin was individually determined using a Surface Plasmon Resonance (SPR) biosensor, Biacore 8K (GE Healthcare). Antibodies were captured on the sensor chip through Fc capture method. Peptide-biotin was used as the analyte. The data of dissociation (kd) and association (ka) rate constants were obtained using Biacore 8K evaluation software. The equilibrium dissociation constants (KD) were calculated from the ratio of kd over ka.

Kd (Peptide-biotin [1]) [nM] | koff (Peptide-biotin [1]) [s⁻¹] | kon (Peptide-biotin [1]) [M⁻¹ s⁻¹] | Kd (Peptide-biotin [3]) [nM] | koff (Peptide-biotin [3]) [s⁻¹] | kon (Peptide-biotin [3]) [M⁻¹ s⁻¹] | Binder | binding result [2]
9.81 | 0.00321 | 327000 |  |  |  | humanized anti-TRPM4 antibody clone A3 (VH1 + VL2) (antibody, V domains shown, Full-length IgG, IgG1 heavy chain; also called VH1 + VL2 (A3)) VH: QVQLQESGPGLVKPSQTLSLTCTVSGYSITSDYAWNWIRQHPGKGLEWIGYLSYSGVTSYNPSLKGRVTISVDTSKNQFSLKLSSVTAADTAVYYCARKGTYYRYEGSYWYFDVWGQGTTVTVSS VL: DIQMTQSPSSLSASVGDRVTITCHANQNIDVWLSWYQQKPGKAPKLLIYKTSNLHTGVPSRFSGSGSGTDFTLTISSLQPEDIATYYCQQGQSYPLTFGGGTKLEIKR | binds
4.36 | 0.00149 | 342000 |  |  |  | humanized anti-TRPM4 antibody VH3 + VL1 (antibody, V domains shown, Full-length IgG) VH: QVQLQESGPGLVKPSQTLSLTCTVSGYSITSDYAWNWIRQHPGKGLQWMGYLSYSGVTSYNPSLKGRITISRDTSKNQFSLKLSSVTAADTAVYYCARKGTYYRYEGSYWYFDVWGQGTTVTVSS VL: DIQMTQSPSSLSASVGDRVTITCHANQNIDVWLSWYQQKPGKAPKLLIYKTSNLHTGVPSRFSGSGSGTDFTFTISSLQPEDIATYYCQQGQSYPLTFGGGTKLEIKR | 
4.37 | 0.00132 | 303000 |  |  |  | humanized anti-TRPM4 antibody VH4 + VL2 (antibody, V domains shown, Full-length IgG) VH: QVQLQESGPGLVKPSQTLSLTCTVSGYSITSDYAWNWIRQHPGKGLQWMGYLSYSGVTSYNPSLKGRITISRDTSKNQFFLKLSSVTAADTAVYYCARKGTYYRYEGSYWYFDVWGQGTTVTVSS VL: DIQMTQSPSSLSASVGDRVTITCHANQNIDVWLSWYQQKPGKAPKLLIYKTSNLHTGVPSRFSGSGSGTDFTLTISSLQPEDIATYYCQQGQSYPLTFGGGTKLEIKR | 
8.62 | 0.00185 | 215000 |  |  |  | humanized anti-TRPM4 antibody VH2 + VL4 (antibody, V domains shown, Full-length IgG) VH: QVQLQESGPGLVKPSQTLSLTCTVSGYSITSDYAWNWIRQHPGKGLEWMGYLSYSGVTSYNPSLKGRVTISRDTSKNQFSLKLSSVTAADTAVYYCARKGTYYRYEGSYWYFDVWGQGTTVTVSS VL: DIQMTQSPSSLSASVGDRVTITCHANQNIDVWLSWYQQKPGNAPKLLIYKTSNLHTGVPSRFSGSGSGTDFTLTISSLQPEDIATYYCQQGQSYPLTFGGGTKLEIKR | 
4.43 | 0.00201 | 454000 |  |  |  | humanized anti-TRPM4 antibody VH4 + VL4 (antibody, V domains shown, Full-length IgG) VH: QVQLQESGPGLVKPSQTLSLTCTVSGYSITSDYAWNWIRQHPGKGLQWMGYLSYSGVTSYNPSLKGRITISRDTSKNQFFLKLSSVTAADTAVYYCARKGTYYRYEGSYWYFDVWGQGTTVTVSS VL: DIQMTQSPSSLSASVGDRVTITCHANQNIDVWLSWYQQKPGNAPKLLIYKTSNLHTGVPSRFSGSGSGTDFTLTISSLQPEDIATYYCQQGQSYPLTFGGGTKLEIKR | 
2.22 | 0.00135 | 608000 |  |  |  | humanized anti-TRPM4 antibody VH3 + VL4 (antibody, V domains shown, Full-length IgG) VH: QVQLQESGPGLVKPSQTLSLTCTVSGYSITSDYAWNWIRQHPGKGLQWMGYLSYSGVTSYNPSLKGRITISRDTSKNQFSLKLSSVTAADTAVYYCARKGTYYRYEGSYWYFDVWGQGTTVTVSS VL: DIQMTQSPSSLSASVGDRVTITCHANQNIDVWLSWYQQKPGNAPKLLIYKTSNLHTGVPSRFSGSGSGTDFTLTISSLQPEDIATYYCQQGQSYPLTFGGGTKLEIKR | 
4.53 | 0.00198 | 438000 |  |  |  | humanized anti-TRPM4 antibody VH3 + VL2 (antibody, V domains shown, Full-length IgG) VH: QVQLQESGPGLVKPSQTLSLTCTVSGYSITSDYAWNWIRQHPGKGLQWMGYLSYSGVTSYNPSLKGRITISRDTSKNQFSLKLSSVTAADTAVYYCARKGTYYRYEGSYWYFDVWGQGTTVTVSS VL: DIQMTQSPSSLSASVGDRVTITCHANQNIDVWLSWYQQKPGKAPKLLIYKTSNLHTGVPSRFSGSGSGTDFTLTISSLQPEDIATYYCQQGQSYPLTFGGGTKLEIKR | 
4.47 | 0.00136 | 305000 |  |  |  | humanized anti-TRPM4 antibody VH4 + VL1 (antibody, V domains shown, Full-length IgG) VH: QVQLQESGPGLVKPSQTLSLTCTVSGYSITSDYAWNWIRQHPGKGLQWMGYLSYSGVTSYNPSLKGRITISRDTSKNQFFLKLSSVTAADTAVYYCARKGTYYRYEGSYWYFDVWGQGTTVTVSS VL: DIQMTQSPSSLSASVGDRVTITCHANQNIDVWLSWYQQKPGKAPKLLIYKTSNLHTGVPSRFSGSGSGTDFTFTISSLQPEDIATYYCQQGQSYPLTFGGGTKLEIKR | 
10.8 | 0.00219 | 203000 |  |  |  | humanized anti-TRPM4 antibody VH2 + VL3 (antibody, V domains shown, Full-length IgG) VH: QVQLQESGPGLVKPSQTLSLTCTVSGYSITSDYAWNWIRQHPGKGLEWMGYLSYSGVTSYNPSLKGRVTISRDTSKNQFSLKLSSVTAADTAVYYCARKGTYYRYEGSYWYFDVWGQGTTVTVSS VL: DIQMTQSPSSLSASVGDRVTITCHANQNIDVWLSWYQQKPGNAPKLLIYKTSNLHTGVPSRFSGSGSGTDFTFTISSLQPEDIATYYCQQGQSYPLTFGGGTKLEIKR | 
4.4 | 0.0018 | 409000 |  |  |  | humanized anti-TRPM4 antibody VH3 + VL3 (antibody, V domains shown, Full-length IgG) VH: QVQLQESGPGLVKPSQTLSLTCTVSGYSITSDYAWNWIRQHPGKGLQWMGYLSYSGVTSYNPSLKGRITISRDTSKNQFSLKLSSVTAADTAVYYCARKGTYYRYEGSYWYFDVWGQGTTVTVSS VL: DIQMTQSPSSLSASVGDRVTITCHANQNIDVWLSWYQQKPGNAPKLLIYKTSNLHTGVPSRFSGSGSGTDFTFTISSLQPEDIATYYCQQGQSYPLTFGGGTKLEIKR | 
4.32 | 0.00143 | 332000 |  |  |  | humanized anti-TRPM4 antibody VH4 + VL3 (antibody, V domains shown, Full-length IgG) VH: QVQLQESGPGLVKPSQTLSLTCTVSGYSITSDYAWNWIRQHPGKGLQWMGYLSYSGVTSYNPSLKGRITISRDTSKNQFFLKLSSVTAADTAVYYCARKGTYYRYEGSYWYFDVWGQGTTVTVSS VL: DIQMTQSPSSLSASVGDRVTITCHANQNIDVWLSWYQQKPGNAPKLLIYKTSNLHTGVPSRFSGSGSGTDFTFTISSLQPEDIATYYCQQGQSYPLTFGGGTKLEIKR | 
11.5 | 0.00295 | 256000 |  |  |  | humanized anti-TRPM4 antibody clone A7 (VH2 + VL2) (antibody, V domains shown, Full-length IgG, IgG1 heavy chain; also called VH2 + VL2 (A7)) VH: QVQLQESGPGLVKPSQTLSLTCTVSGYSITSDYAWNWIRQHPGKGLEWMGYLSYSGVTSYNPSLKGRVTISRDTSKNQFSLKLSSVTAADTAVYYCARKGTYYRYEGSYWYFDVWGQGTTVTVSS VL: DIQMTQSPSSLSASVGDRVTITCHANQNIDVWLSWYQQKPGKAPKLLIYKTSNLHTGVPSRFSGSGSGTDFTLTISSLQPEDIATYYCQQGQSYPLTFGGGTKLEIKR | binds
7 | 0.00177 | 252000 | 3.18 | 0.00062 | 195000 | humanized anti-TRPM4 antibody clone A4 (VH1 + VL3) (antibody, V domains shown, Full-length IgG, IgG1 heavy chain; also called VH1 + VL3 (A4)) VH: QVQLQESGPGLVKPSQTLSLTCTVSGYSITSDYAWNWIRQHPGKGLEWIGYLSYSGVTSYNPSLKGRVTISVDTSKNQFSLKLSSVTAADTAVYYCARKGTYYRYEGSYWYFDVWGQGTTVTVSS VL: DIQMTQSPSSLSASVGDRVTITCHANQNIDVWLSWYQQKPGNAPKLLIYKTSNLHTGVPSRFSGSGSGTDFTFTISSLQPEDIATYYCQQGQSYPLTFGGGTKLEIKR | binds
9.96 | 0.00217 | 217000 |  |  |  | humanized anti-TRPM4 antibody clone A5 (VH1 + VL4) (antibody, V domains shown, Full-length IgG, IgG1 heavy chain; also called VH1 + VL4 (A5)) VH: QVQLQESGPGLVKPSQTLSLTCTVSGYSITSDYAWNWIRQHPGKGLEWIGYLSYSGVTSYNPSLKGRVTISVDTSKNQFSLKLSSVTAADTAVYYCARKGTYYRYEGSYWYFDVWGQGTTVTVSS VL: DIQMTQSPSSLSASVGDRVTITCHANQNIDVWLSWYQQKPGNAPKLLIYKTSNLHTGVPSRFSGSGSGTDFTLTISSLQPEDIATYYCQQGQSYPLTFGGGTKLEIKR | binds
10.6 | 0.00195 | 184000 | 4.02 | 0.000662 | 165000 | humanized anti-TRPM4 antibody clone A6 (VH2 + VL1) (antibody, V domains shown, Full-length IgG, IgG1 heavy chain; also called VH2 + VL1 (A6)) VH: QVQLQESGPGLVKPSQTLSLTCTVSGYSITSDYAWNWIRQHPGKGLEWMGYLSYSGVTSYNPSLKGRVTISRDTSKNQFSLKLSSVTAADTAVYYCARKGTYYRYEGSYWYFDVWGQGTTVTVSS VL: DIQMTQSPSSLSASVGDRVTITCHANQNIDVWLSWYQQKPGKAPKLLIYKTSNLHTGVPSRFSGSGSGTDFTFTISSLQPEDIATYYCQQGQSYPLTFGGGTKLEIKR | binds
4.61 | 0.0015 | 325000 | 1.74 | 0.000543 | 312000 | anti-TRPM4 chimeric antibody clone A1 (VH + VL) (antibody, V domains shown, also called VH + VL (A1)) VH: QVQLQESGPGLVKPSQSLSLTCTVTGYSITSDYAWNWIRQFPGNKLQWMGYLSYSGVTSYNPSLKGRISITRDTSKNQFFLQLSSVTPEDTATYYCARKGTYYRYEGSYWYFDVWGAGTTVTVSS VL: DIQMNQSPSSLSASLGDTITITCHANQNIDVWLSWYQQKPGNVPKLLIYKTSNLHTGVPSRFSGSGSGTDFTLTISSLQPEDIATYYCQQGQSYPLTFGGGTKLEIK | binds
